For three molecules, binding result and OD detection value results are on record in patent US20260265354A1 (JIANGSU MABWELL HEALTH PHARMACEUTICAL R AND D, published 2026).

Where a chain is given by its changes, count along the chain named.

Assay [1] deals with T1, Nectin-like-4 (UniProt Q8NFZ8 21-324, limits assumed).
T1 construct: Bought recombinant protein; also called CADM4; IgSF4C
T1 sequence (looked up): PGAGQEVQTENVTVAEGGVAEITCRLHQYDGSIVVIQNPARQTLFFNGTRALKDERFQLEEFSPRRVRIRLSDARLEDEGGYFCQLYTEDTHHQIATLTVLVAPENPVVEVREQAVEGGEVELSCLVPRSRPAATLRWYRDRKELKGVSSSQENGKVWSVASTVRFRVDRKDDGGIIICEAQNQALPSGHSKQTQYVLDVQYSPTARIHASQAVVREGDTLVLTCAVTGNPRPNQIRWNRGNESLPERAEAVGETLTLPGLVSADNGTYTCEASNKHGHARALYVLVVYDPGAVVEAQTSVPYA
Kind of assay: ELISA, coated antigen. (An ELISA detects its analyte on a solid surface through an enzyme-linked reagent.)

In assay [2] the target is T2, Nectin-3 (UniProt Q9NQS3 58-404, limits assumed).
T2 construct: Bought recombinant protein; also called CD113; PVRL-3
T2 sequence (Q9NQS3 58-404 limits assumed): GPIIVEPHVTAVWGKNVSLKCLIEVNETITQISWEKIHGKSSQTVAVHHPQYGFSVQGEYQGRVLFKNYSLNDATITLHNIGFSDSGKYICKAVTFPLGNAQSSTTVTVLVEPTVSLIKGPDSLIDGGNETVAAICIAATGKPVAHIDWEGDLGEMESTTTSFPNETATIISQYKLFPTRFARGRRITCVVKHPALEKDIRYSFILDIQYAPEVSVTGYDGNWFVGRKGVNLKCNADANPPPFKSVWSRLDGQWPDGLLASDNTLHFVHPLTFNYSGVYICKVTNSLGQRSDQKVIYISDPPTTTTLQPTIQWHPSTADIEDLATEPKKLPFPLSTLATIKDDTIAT
Kind of assay: ELISA, coated antigen.

For assay [3], the target named is T3, Nectin-like-3 (UniProt Q8N3J6 25-367, limits assumed).
T3 construct: Bought recombinant protein; also called CADM2; IgSF4D
T3 sequence (looked up): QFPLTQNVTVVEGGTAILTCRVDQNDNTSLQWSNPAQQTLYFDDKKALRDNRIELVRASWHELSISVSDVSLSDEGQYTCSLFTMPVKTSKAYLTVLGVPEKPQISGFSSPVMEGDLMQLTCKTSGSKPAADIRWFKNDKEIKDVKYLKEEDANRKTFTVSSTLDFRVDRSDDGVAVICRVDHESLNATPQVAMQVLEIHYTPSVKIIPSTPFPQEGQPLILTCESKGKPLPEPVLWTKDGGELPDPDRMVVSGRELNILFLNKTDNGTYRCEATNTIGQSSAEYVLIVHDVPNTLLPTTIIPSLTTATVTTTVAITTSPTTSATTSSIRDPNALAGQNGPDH
Kind of assay: ELISA, coated antigen.

Assay [4] addresses T4, Nectin-like-5 (UniProt P15151 21-343).
T4 construct: Bought recombinant protein; also called CD155; PVR
T4 sequence (looked up): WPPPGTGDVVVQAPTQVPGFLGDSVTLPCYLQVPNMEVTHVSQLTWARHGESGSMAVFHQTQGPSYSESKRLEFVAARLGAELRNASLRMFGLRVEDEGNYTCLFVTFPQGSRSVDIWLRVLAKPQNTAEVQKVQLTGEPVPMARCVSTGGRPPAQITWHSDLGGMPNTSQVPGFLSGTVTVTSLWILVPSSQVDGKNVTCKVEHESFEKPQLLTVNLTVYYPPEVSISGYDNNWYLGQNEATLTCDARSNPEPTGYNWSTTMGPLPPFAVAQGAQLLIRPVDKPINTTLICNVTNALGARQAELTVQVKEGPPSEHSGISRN
Kind of assay: ELISA, coated antigen.

Assay [5] concerns the target T5, Nectin-like-1 (UniProt Q8N126 25-330, limits assumed).
T5 construct: Bought recombinant protein; also called CADM3; IgSF4B
T5 sequence (looked up): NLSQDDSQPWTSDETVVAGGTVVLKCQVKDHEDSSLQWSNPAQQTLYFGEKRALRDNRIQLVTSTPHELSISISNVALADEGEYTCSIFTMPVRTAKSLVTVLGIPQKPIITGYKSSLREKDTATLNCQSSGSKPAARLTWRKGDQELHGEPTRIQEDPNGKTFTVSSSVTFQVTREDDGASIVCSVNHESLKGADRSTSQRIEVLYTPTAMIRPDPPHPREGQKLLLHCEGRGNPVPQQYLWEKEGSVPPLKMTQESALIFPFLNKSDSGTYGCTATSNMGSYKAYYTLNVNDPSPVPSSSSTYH
The assay is described as follows: ELISA, coated antigen.

Assay [6] concerns the target T6, Nectin-2 (UniProt Q92692 32-360, limits assumed).
T6 construct: Bought recombinant protein; also called CD112; PVRL-2
T6 sequence (looked up): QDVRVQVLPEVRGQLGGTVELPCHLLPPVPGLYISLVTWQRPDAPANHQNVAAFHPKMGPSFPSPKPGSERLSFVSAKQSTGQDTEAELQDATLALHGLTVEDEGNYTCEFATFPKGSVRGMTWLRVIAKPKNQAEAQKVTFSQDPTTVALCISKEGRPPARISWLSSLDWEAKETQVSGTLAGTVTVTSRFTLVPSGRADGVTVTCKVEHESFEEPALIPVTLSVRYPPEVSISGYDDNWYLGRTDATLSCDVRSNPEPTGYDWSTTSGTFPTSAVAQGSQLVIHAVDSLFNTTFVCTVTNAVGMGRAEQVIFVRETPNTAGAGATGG
Kind of assay: ELISA, coated antigen.

The target of assay [7] is T7, Nectin-like-2 (UniProt Q9BY67 45-374, limits assumed).
T7 construct: Bought recombinant protein; also called CADM1; IgSF4
T7 sequence (looked up): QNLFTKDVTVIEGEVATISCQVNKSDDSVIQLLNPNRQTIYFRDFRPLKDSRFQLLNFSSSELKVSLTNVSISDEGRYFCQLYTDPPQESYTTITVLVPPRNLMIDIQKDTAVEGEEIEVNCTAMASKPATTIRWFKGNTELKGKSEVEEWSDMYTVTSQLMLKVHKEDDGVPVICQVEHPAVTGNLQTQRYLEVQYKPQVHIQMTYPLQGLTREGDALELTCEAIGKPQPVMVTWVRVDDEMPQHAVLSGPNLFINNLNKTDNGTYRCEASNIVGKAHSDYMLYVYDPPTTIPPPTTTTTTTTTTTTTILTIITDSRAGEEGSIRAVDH
The assay is described as follows: ELISA, coated antigen.

Assay [8] deals with T1, Nectin-like-4. Kind of assay: ELISA, coated antigen, antibody at 1000 ng/ml. How it is done: (§1) Coating: Nectin-1, Nectin-2, Nectin-3, Nectin-4, Nectin-like-1, Nectin-like-2, Nectin-like-3, Nectin-like-4, and Nectin-like-5 were diluted to 5 μg/ml in coating buffer (carbonate buffer, pH 9.6) respectively. A 96-well plate was coat with 100 μl per well and incubated overnight at 2-8° C.;
(§2) Sample loading: The plate was taken out, patted dry, and washed twice with 200 μl/well of PBST, then patted dry. The Nectin-4 antibodies prepared in Example 1 (antibody MM11, antibody R012, and antibody R036) were diluted with 1% BSA/PBST to concentrations of 10 μg/ml, 1 μg/ml, 100 ng/ml, and 10 ng/ml, respectively. 1% BSA/PBST solution for dilution was set as a blank control. 100 μl per well was added to the 96-well plate, and incubated at room temperature for 2 hours;
(§3) Reaction termination and plate reading: 100 μl/well of 1 mol/L H3PO4 was added to terminate the reaction and the plated was read. The absorbances of wells in the plate at 450 nm with 650 nm as reference wavelength were read and recorded as OD_{450 nm-650 nm}.

Assay [9] addresses T7, Nectin-like-2. Kind of assay: ELISA, coated antigen, antibody at 1000 ng/ml. The procedure:
as §1, §2, §3

B1: Antibody R012 (antibody, V domains shown)
VH: SKSVEESGGRLVTPGTPLTLTCTVSGFSLSTYAMSWVRQAPGKGLEYIGIISGRGTTYYASWLKGRFTISKTSTTVDLKITSPTTEDTATYFCARDAGISDVYTGYFNLWGQGTLVTVSS
VL: QPVLAQLPSASAALGASAKLTCTLSSAHRTYTIAWYQQQQGEAPRYLMMLKSDGSYTKGTGVPDRFSGSSSGADRYLIISSVQAADEADYYCGADDSGGYVFGGGTQLTVTG
notes: Rabbit monoclonal antibody from phage display; also called Nectin-4 rabbit monoclonal antibody R012; rabbit antibody R012
Take B1: the binding result in assay [1], in assay [2], in assay [3], in assay [4], in assay [5] and in assay [6] was “no binding (tested: 10000 ng/ml)” each time. Moreover, the binding result in assay [7] is “no binding (tested: 10000 ng/ml)”. Also, the OD detection value in [8] and in assay [9] was 0.007 OD450 nm-650 nm each time.

B2: Antibody R036 (antibody, V domains shown)
VH: SQSVEESGGRLVTPGTPLTLTCTVSGFSLSSYAMSWVRQAPGKGLEYIGIIGGRGTTYYAIWAKGRFTISKTSTTVDLKITSPTTEDTATYFCARDAGTTYVGTTYVATGYFNLWGQGTLVTVSS
VL: B1 VL with A5T, L7P, R29K, M49I, K58R, A85D
notes: Rabbit monoclonal antibody from phage display; also called Nectin-4 rabbit monoclonal antibody R036; rabbit antibody R036
Consider B2, for which the binding result in [1], in [2], in assay [3], in assay [4], in [5] and in [6] was “no binding (tested: 10000 ng/ml)” in each case. Besides, the binding result in [7] was “no binding (tested: 10000 ng/ml)”. Besides, the OD detection value is 0.007 OD450 nm-650 nm in assay [8] and 0.006 OD450 nm-650 nm in [9].

B3: Antibody MM11 (antibody, mouse IgG1, kappa, V domains shown)
VH: DVQLQESGPGLVKPSQSLSLTCSVTGYSITSNFYWNWIRQFPGNRLEWMGYISYDGSNNYNPSLKNRISISRDTSKNQFFLKLNSVTTEDTATYYCVRADYWGQGTLVTVSA
VL: DTVMTQTPLSLPVSLGDQASISCRSSQSLESSDGHAYLNWYLQKPGQSPQLLIYRVSNRFSGVLHRFSGSGSGTDFTLKISRVEAEDLGVYFCLQFTHVPFTFGSGTKLEIKR
notes: Mouse monoclonal antibody from hybridoma; also called Nectin-4 mouse monoclonal antibody MM11; mouse antibody MM11
With B3, the binding result in [1], in assay [2], in assay [3], in assay [4], in assay [5] and in [6] was “no binding (tested: 10000 ng/ml)” in each case. Also, in assay [7], the binding result is “no binding (tested: 10000 ng/ml)”. Moreover, the figures for the OD detection value in assay [8] and in assay [9] were 0.01 OD450 nm-650 nm and 0.008 OD450 nm-650 nm, respectively.
